Results reported in PMC4414141, “The function of cux1 in oxidative dna damage repair is needed to prevent premature senescence of mouse embryo fibroblasts”.

Tests used:
Settings in all cases: protein: recombinant; tags: N-terminal His; label: 5'-32P on top strand
[1] = biological target: T1, CUX1 CR2CR3HD (UniProt P39880 934-1303); assay: EMSA; EMSA: 50 nM bacterially purified protein, 60 ng poly(dI-dC); buffer, salt, pH and temperature by reference to earlier work (not in material)
T1 sequence: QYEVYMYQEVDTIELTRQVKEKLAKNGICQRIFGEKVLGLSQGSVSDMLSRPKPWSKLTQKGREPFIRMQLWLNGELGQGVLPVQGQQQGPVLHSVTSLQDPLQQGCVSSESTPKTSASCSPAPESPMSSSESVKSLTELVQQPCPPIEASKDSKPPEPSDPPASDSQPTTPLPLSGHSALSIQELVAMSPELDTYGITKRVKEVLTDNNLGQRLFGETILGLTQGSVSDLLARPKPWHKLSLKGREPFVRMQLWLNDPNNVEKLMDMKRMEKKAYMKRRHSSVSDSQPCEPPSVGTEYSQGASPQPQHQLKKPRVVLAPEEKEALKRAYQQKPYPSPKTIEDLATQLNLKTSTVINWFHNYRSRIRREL

[2] = biological target: T2, CUX1 CR1CR2 (UniProt P39880 542-1021); assay: as above
T2 sequence: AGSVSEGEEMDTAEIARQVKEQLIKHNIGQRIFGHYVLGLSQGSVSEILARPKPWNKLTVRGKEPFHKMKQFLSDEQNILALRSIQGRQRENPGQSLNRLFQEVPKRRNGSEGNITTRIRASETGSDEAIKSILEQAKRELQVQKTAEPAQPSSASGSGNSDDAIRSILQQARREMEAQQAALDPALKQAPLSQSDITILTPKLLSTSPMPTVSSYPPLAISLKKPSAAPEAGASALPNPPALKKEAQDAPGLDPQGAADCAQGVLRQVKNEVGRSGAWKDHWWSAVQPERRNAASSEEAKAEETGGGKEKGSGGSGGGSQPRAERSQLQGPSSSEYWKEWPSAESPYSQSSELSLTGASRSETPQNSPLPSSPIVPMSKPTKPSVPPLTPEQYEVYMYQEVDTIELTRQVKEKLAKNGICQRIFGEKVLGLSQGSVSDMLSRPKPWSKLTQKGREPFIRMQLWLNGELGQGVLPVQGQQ

[3] = biological target: T3, CUX1 CR3HD (UniProt P39880 1117-1303); assay: EMSA; complex co-migrates with that of OGG1; EMSA: 50 nM bacterially purified protein, 60 ng poly(dI-dC); buffer, salt, pH and temperature by reference to earlier work (not in material)
T3 sequence: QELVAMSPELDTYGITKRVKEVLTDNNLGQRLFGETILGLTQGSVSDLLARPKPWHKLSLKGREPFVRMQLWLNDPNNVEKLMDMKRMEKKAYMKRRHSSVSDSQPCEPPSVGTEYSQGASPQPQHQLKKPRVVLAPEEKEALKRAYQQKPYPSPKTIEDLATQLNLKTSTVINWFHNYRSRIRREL

Measured: binding result

B1: Probe A, 8-oxoG (dsDNA)
DNA 1: CCGGTGCATGACACTGTGACCTATCCTCAGCG
DNA 2: CGCTGAGGATAGGTCACAGTGTCATGCACCGG
modifications: 8-oxoG at position X of top strand
binds: [1] | [2] | [3]
